Measurements: US20070054846A1, “Bcl-w structure and uses therefor” (priority 2002, published 2007)

Columns and labels:
[1] = test system: FDC-P1 myeloid cells; test: Survival assay of cells overexpressing Bcl-w constructs; type: cell-based; settings: overexpressed FLAG-tagged protein, IL-3 withdrawal, γ-irradiation or cytotoxic drugs
Protocol: Like its cousins Bcl-2 and Bcl-xL, Bcl-w overexpression protects cells from diverse death stimuli, including cytokine deprivation and γ-irradiation (Gibson et al., 1996).
Survival assays were performed as described previously (O'Connor et al., 1998; Huang et al., 1998; Wilson-Annan et al., 2003; and references therein). Briefly, cells (2−5×10^4 per time point) were left untreated, deprived of their essential growth factor IL-3, exposed to 10Gy γ-irradiation (provided by a ^60Co source), 1-100 nM staurosprorine (Sigma). Cell viability was quantified by flow cytometric analysis of cells excluding 5 μg/mL PI (Sigma) using a FACScan (Becton Dickinson). Each time point was performed in triplicate on at least 3 independent clones of each genotype and the experiments repeated at least 3 times.

[2] = target: T1, full-length Bcl-xL (Homo sapiens, UniProt Q07817); test: Co-immunoprecipitation from cell extracts; type: binding; settings: FLAG-tagged full-length Bcl-xL
T1 construct: FLAG-tagged full-length Bcl-xL or a C-terminally truncated mutant (ΔC24); expressed in transfected cells
Description: (§1) Bcl-xL and Bcl-2 also contain hydrophobic residues at their C-termini, similar to those found in Bcl-w (FIG. 1C), yet the low level of sequence identity following α8 and the absence of 3D-structural information, makes prediction of their conformation difficult. Since BCl-xL, like Bcl-w, is only partially membrane-bound in healthy cells (Hsu et al., 1997), we compared the ability of FLAG-tagged full-length Bcl-xL or a C-terminally truncated mutant (ΔC24) to bind to BimL or the […]L94A B3 mutant.
Cell culture, stable transfections into FDC-P1, transient transfections into 293T human embryonic kidney cells, metabolic labelling with ^35S-methionine/cysteine (NEN) and co-immunoprecipitation have been previously described (O'Connor et al., 1998, Moriishi et al., 1999; Huang et al., 1998; Wilson-Annan et al., 2003). Briefly, mammalian pEF-based expression vectors for Bcl-w, BCl-xL, Bim, Bmf, Bad and Bik (O'Connor et al., 1998, Huang et al., 1998; Moriishi et al., 1999; Wilson-Annan et al., 2003) were transiently transfected using liposome mediated transfection (Lipofectamine™; Invitrogen). […] The immunoprecipitates were resolved by SDS-PAGE (Novex), transferred onto nitrocellulose membranes (APB) and the proteins detected by fluorography (Amplify; APB).

[3] = target: T2, Bcl-xLΔC24 (Homo sapiens, UniProt Q07817); test: Co-immunoprecipitation / GST pull-down; type: binding; settings: C-terminally truncated Bcl-xL (ΔC24)
T2 construct: expressed in transfected cells
Description: as §1
Direct interactions between Bcl-w and BimL were monitored using GST pull-down experiments. These were performed in 100 μl of PBS (phosphate buffered saline pH 7.3) containing 2 mM DTT. Typically excess soluble proteins were added to equivalent amounts of resin bound proteins. After incubation at room temperature for 30 minutes the resin was pelleted and then washed twice with 200 μl of PBS containing 0.2% Tween 20. […]
Cell culture, stable transfections into FDC-P1, transient transfections into 293T human embryonic kidney cells, metabolic labelling with ^35S-methionine/cysteine (NEN) and co-immunoprecipitation have been previously described (O'Connor et al., 1998, Moriishi et al., 1999; Huang et al., 1998; Wilson-Annan et al., 2003). […] The immunoprecipitates were resolved by SDS-PAGE (Novex), transferred onto nitrocellulose membranes (APB) and the proteins detected by fluorography (Amplify; APB).

[4] = target: T3, full length Bcl-w (Homo sapiens, UniProt Q92843, Q133R); test: BIAcore surface plasmon resonance, Bcl-w protein in solution on immobilised Bim; type: binding; design: GST (N, cleaved yes); made in house; host or cells: E. coli BL21(DE3); settings: for Kd: 1:1 Langmuir model, global analysis
T3 sequence (Q92843 1-193 Q133R): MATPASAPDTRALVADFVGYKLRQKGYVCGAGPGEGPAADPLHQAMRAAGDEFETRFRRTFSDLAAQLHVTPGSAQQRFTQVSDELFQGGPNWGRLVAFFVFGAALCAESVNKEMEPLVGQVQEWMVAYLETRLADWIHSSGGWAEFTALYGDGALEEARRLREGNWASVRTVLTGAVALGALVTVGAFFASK
Description: (§2) Human Bcl-w and mouse BimL were expressed as glutathione-S-transferase (GST) fusion proteins in E. coli BL21(DE3) and purified by affinity chromatography using Glutathione Sepharose (APB; Amersham Pharmacia Biotech). Following purification of the GST-fusion proteins Bcl-w and Bim were released from GST using PreScission protease (APB) and then further purified by size exclusion chromatography using a Superdex-75 column. All the purified proteins have 5 additional N-terminal residues (GPLGS) as a result of cloning. Isotopically labelled proteins were prepared as described previously (Day et al., 1999). Samples of Bcl-wΔC10 used for NMR contained ˜1.0 mM protein in 50 mM sodium phosphate (pH 6.7), 70 mM NaCl, 2 mM tris-(2-carboxyethyl) phosphine (TCEP) and 0.04% sodium azide in H2O:^2H2O (95:5). The Bcl-wΔC5 sample contained 0.4 mM protein in the same buffer. Site specific mutants of BimL and Bcl-w were generated using a PCR based strategy as described previously (Day et al., 1999). The sequence of all clones was confirmed by sequencing.
(§3) Analysis of protein interactions by surface plasmon resonance was carried out on a BIAcore 2000 biosensor (BIAcore). For the immobilisation to BIAcore CM 5 sensorchips (BIAcore), wild-type or mutant Bim proteins were buffer exchanged into 20 mM Na-acetate, pH 4.5. N-hydroxysuccinimide coupling and binding analysis was done as described previously (Lackmann et al., 1997). In order to minimise mass-transport mediated effects the kinetic experiments were routinely carried out at 20 μl/min. Bcl-w binding at concentrations between 2 and 0.03 μM in running buffer (10 mM HEPES, pH 7.4, 150 mM NaCl, 3.4 mM EDTA, 0.005% Tween 20) was performed on sensorchip surfaces derivatised on parallel channels with a non-relevant protein, BimLΔC27 and BimLΔC27-L94A. The binding kinetics were derived from the sensorgrams following subtraction of baseline responses (measured on the control channel) by ‘global analysis’ using the BIA Evaluation software (vers. 3.02, BIAcore). The surface of the chip was regenerated with 50 mM 1,2-diethylamine containing 0.1% Triton X100, followed by two washes with running buffer.

[5] = target: T3, full length Bcl-w; test: GST pull-down; type: binding; design: N-terminally FLAG-tagged full-length or C-terminally truncated Bcl-w; expressed in transfected cells; host or cells: 293T human embryonic kidney cells (pEF-based vector, transient)
Description: as §2
Direct interactions between Bcl-w and BimL were monitored using GST pull-down experiments. These were performed in 100 μl of PBS (phosphate buffered saline pH 7.3) containing 2 mM DTT. Typically excess soluble proteins were added to equivalent amounts of resin bound proteins. […]

[6] = target: T4, Bcl-wΔC29 (Homo sapiens, UniProt Q92843, Q133R); test: BIAcore surface plasmon resonance, truncated Bcl-w in solution on immobilised Bim; type: binding; settings: for Kd: Bcl-w truncated by 29 residues at the C-terminus
T4 construct: GST (N, cleaved yes); made in house; host or cells: E. coli BL21(DE3)
T4 sequence (Q92843 1-164 Q133R): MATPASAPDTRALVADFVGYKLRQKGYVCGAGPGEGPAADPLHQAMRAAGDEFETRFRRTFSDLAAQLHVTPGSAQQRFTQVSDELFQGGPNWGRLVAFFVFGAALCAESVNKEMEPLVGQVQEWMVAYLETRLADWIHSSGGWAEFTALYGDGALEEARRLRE
Description: as §2
as §3, with “The surface of the chip was regenerated with 50 mM 1,2-diethylamine containing 0.1% Triton X100, followed by two washes with running buffer.” left out

[7] = target: T5, Bcl-wΔC10 (Homo sapiens, UniProt Q92843, A128E/Q133R); test: GST pull-down; type: binding
T5 construct: made in house; host or cells: E. coli BL21(DE3)
T5 sequence (Q92843 1-183 A128E/Q133R): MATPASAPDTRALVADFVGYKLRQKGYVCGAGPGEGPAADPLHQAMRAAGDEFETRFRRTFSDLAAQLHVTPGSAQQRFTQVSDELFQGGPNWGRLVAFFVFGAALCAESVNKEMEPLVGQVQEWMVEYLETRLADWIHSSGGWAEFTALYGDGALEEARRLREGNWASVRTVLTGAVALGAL
Description: as §2
(§4) Direct interactions between Bcl-w and BimL were monitored using GST pull-down experiments. These were performed in 100 μl of PBS (phosphate buffered saline pH 7.3) containing 2 mM DTT. Typically excess soluble proteins were added to equivalent amounts of resin bound proteins. After incubation at room temperature for 30 minutes the resin was pelleted and then washed twice with 200 μl of PBS containing 0.2% Tween 20. After removal of the second wash 10 μl of SDS-PAGE sample buffer was added to each sample and the samples were boiled then loaded onto 16% polyacrylamide gels that were electrophoresed and stained with Coomassie Blue R250. The staining intensity of the bound soluble protein indicated the strength of the interaction between the two proteins.

[8] = target: T6, Bcl-wΔC20 (Homo sapiens, UniProt Q92843, Q133R); test: GST pull-down; type: binding
T6 construct: made in house; host or cells: E. coli BL21(DE3)
T6 sequence (Q92843 1-173 Q133R): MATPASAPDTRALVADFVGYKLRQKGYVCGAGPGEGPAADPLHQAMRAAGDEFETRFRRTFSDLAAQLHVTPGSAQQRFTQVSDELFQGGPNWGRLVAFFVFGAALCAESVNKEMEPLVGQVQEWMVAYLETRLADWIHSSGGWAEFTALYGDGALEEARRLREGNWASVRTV
Description: as §2, §4

[9] = target: T4, Bcl-wΔC29; test: GST pull-down; type: binding
Description: as §2, §4

T2 sequence (Q07817 1-209 limits assumed, stated change not applied): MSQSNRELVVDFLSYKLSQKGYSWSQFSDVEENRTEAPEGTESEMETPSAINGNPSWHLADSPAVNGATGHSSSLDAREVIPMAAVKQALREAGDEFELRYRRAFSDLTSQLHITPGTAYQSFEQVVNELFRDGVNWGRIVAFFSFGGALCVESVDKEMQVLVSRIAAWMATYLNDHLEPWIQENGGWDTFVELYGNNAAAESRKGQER
T1 sequence (Q07817 whole entry, species assumed, the tested form may be a part): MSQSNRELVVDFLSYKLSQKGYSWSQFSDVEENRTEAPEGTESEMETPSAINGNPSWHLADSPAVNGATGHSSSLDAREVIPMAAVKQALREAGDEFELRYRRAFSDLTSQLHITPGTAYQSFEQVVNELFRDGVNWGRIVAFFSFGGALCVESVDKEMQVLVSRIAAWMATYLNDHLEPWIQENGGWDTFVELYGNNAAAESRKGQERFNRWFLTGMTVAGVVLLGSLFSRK

B1: Bcl-wΔC5: C-terminal truncated variant of Bcl-w lacking 5 residues (protein)
single chain: MATPASAPDTRALVADFVGYKLRQKGYVCGAGPGEGPAADPLHQAMRAAGDEFETRFRRTFSDLAAQLHVTPGSAQQRFTQVSDELFQGGPNWGRLVAFFVFGAALCAESVNKEMEPLVGQVQEWMVAYLETRLADWIHSSGGWAEFTALYGDGALEEARRLREGNWASVRTVLTGAVALGALVTVGA
pro-survival activity [1]: behaved like the full-length protein
pro-survival activity ([1]; listed as ΔC5): fully active

B2: Bcl-wΔC10: SEQ ID NO:2; Bcl-w derivative lacking the last 10 residues, Ala128 substituted with glutamate (protein)
chain: MATPASAPDTRALVADFVGYKLRQKGYVCGAGPGEGPAADPLHQAMRAAGDEFETRFRRTFSDLAAQLHVTPGSAQQRFTQVSDELFQGGPNWGRLVAFFVFGAALCAESVNKEMEPLVGQVQEWMVEYLETRLADWIHSSGGWAEFTALYGDGALEEARRLREGNWASVRTVLTGAVALGAL
modifications: Bcl-w deltaC10 A128E
notes: Bcl-w derivative lacking the last 10 residues, Ala128 substituted with glutamate
pro-survival activity [1]: biologically inert

B3: Bcl-wΔC3: C-terminal truncated variant of Bcl-w lacking 3 residues (protein)
single chain: MATPASAPDTRALVADFVGYKLRQKGYVCGAGPGEGPAADPLHQAMRAAGDEFETRFRRTFSDLAAQLHVTPGSAQQRFTQVSDELFQGGPNWGRLVAFFVFGAALCAESVNKEMEPLVGQVQEWMVAYLETRLADWIHSSGGWAEFTALYGDGALEEARRLREGNWASVRTVLTGAVALGALVTVGAFF
pro-survival activity [1]: fully active

B4: BimL-L94A: BimL with BH3 mutation L94A (protein)
chain: MAKQPSDVSSECDREGGQLQPAERPPQLRPGAPTSLQTEPQDRSPAPMSCDKSTQTPSPPCQAFNHYLSAMASIRQSQEEPEDLRPEIRIAQEARRIGDEFNETYTRRVFANDYREAEDHPQMVILQLLRFIFRLVWRRH
modifications: left off: small tags and cut ends
association in cell extracts [2]: associates only with wild-type BimL
binding [3]: bound wild-type BimL and the L94A mutant equally

B5: BimLΔC27: Purified, C-terminally truncated mouse BimL, a BH3-only protein (protein)
chain: GPLGSMAKQPSDVSSECDREGGQLQPAERPPQLRPGAPTSLQTEPQDRSPAPMSCDKSTQTPSPPCQAFNHYLSAMASIRQSQEEPEDLRPEIRIAQELRRIGDEFNETYTRRVFAND
Kd [4]: 0.024 µM
binding in GST pull-down [5]: bound
Kd [6]: 0.011 µM
increase in the association rate versus full length Bcl-w ([6]; Bcl-wΔC29): three-fold
binding in GST pull-down [7]: bound
binding in GST pull-down [8]: bound equally well
binding in GST pull-down [9]: bound equally well

B6: BimLΔC27-L94A: Mutant version of C-terminally truncated BimL with BH3 domain mutation L94A (protein)
chain: GPLGSMAKQPSDVSSECDREGGQLQPAERPPQLRPGAPTSLQTEPQDRSPAPMSCDKSTQTPSPPCQAFNHYLSAMASIRQSQEEPEDLRPEIRIAQEARRIGDEFNETYTRRVFAND
decrease in the association rate versus wild-type Bim [4]: 10 fold
increase in the dissociation rates versus wild-type Bim [4]: five-fold
reduction of affinity versus wild-type Bim [4]: over 60 fold
Kd [4]: 1.6 µM
binding in GST pull-down [5]: only bound wt BimLΔC27
Kd [6]: 0.013 µM
binding in GST pull-down [7]: only bound wt BimLΔC27
binding in GST pull-down [8]: bound equally well
binding in GST pull-down [9]: bound equally well
